Reference: publication PMC3139607, “Broad-Spectrum Inhibition of HIV-1 by a Monoclonal Antibody Directed against a gp120-Induced Epitope of CD4” (PLoS ONE, 2011)

Target: T1, MAb DB81 (Mus musculus)
T1 construct: IgH V1-39*01, D2-2*01, J3*01; IgK V6-17*01, J2*01; Whole mouse IgG1 kappa; only the variable domains are printed; The first and last residues of each V domain lie under the PCR primers; also called C9 (parent hybridoma well); anti-human CD4-HIV-1-gp120 complex DB81 monoclonal antibody; source: mouse hybridoma (spleen cells of immunized Balb/c mice x P3X63Ag8.653 myeloma); purified from cell …
Experiment: SPR; MAb DB81 bound to the chip; synthetic 19-mer CD4 peptides as analytes (Figure 5)
Details: both partners purified

T1 sequence (VH, as listed by the source, chain 1 of 2): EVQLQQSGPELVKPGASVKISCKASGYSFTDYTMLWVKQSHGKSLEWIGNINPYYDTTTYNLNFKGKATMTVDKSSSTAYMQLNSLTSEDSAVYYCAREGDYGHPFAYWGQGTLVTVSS
T1 sequence (VL, as listed by the source, chain 2 of 2): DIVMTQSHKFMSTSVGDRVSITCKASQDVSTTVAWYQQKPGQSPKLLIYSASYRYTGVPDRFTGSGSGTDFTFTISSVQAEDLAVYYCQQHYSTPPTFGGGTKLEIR

B1: human CD4-derived 19-mer peptide GTWTCTVLQNQKKVEFKID (peptide)
peptide: GTWTCTVLQNQKKVEFKID
notes: aa; 180-198 of membrane CD4 from Hominidae (Homo, P. troglodytes); also called human peptide; source: synthetic peptide (solid-phase F-moc, RP-HPLC purified)
binding result: binds
